In patent US10851152B2, “Polymerized peptide and gel having collagen-like structure” (WASEDA UNIVERSITY, priority 2015, dated 2020):
No end group written: not given here.

Tests used:
[1] = Thermal stability of hydrogel (sinking of stainless ball); assay type: physicochemical; details: hydrogel of 1% (w/v) peptide; 10 min per temperature
Experimental: After mounting the stainless ball on the hydrogel prepared, they were moved to a thermostatic device, and were left to stand for 10 min at various temperatures between 35° C. and 95° C. Whether gel collapse had occurred was determined by judging the sinking of the stainless ball.

[2] = Remaining thiol group (Ellman's reagent) in oxidative polymerization reaction; assay type: physicochemical; details: 10% DMSO, peptide 1% (w/v)
Experimental: Degassed water was used to prepare a peptide solution having a concentration of 1.11% (w/v), and the solution was then put into a PCR tube. After heating this solution at 80° C. for 5 min, it was then left to sand still at 4° C. overnight. By adding DMSO to this solution, there was prepared a peptide solution having a final concentration of 10% DMSO, peptide 1% (w/v). The PCR tube was then filled with a mineral oil in a way such that the mineral oil covered the surface of the solution. In every measurement, the mineral oil was eliminated from the peptide solution to prepare a peptide solution for oxidation monitoring. Ellman's reagent was prepared in a way such that 9 mg/ml of DTNB was present in 50 mM of a phosphate buffer solution (pH 8.4). 33 mM phosphate buffer solution (pH 8.4) and Ellman's reagent 1.5 mg/ml were left to stand for […], then a light absorbance was then measured after a solution with a final concentration of peptide 0.167 mg/ml. Recorded were changes in absorbance with time, with a moment when DMSO was added being a starting point (0 hour). Since the Ellman's reagent generates 5-mercapto-2-nitrobenzoate (λ max=412 nm, ε=1.55×10^4) depending on the amount of thiol groups (referred to as “SH groups” hereunder) in the peptide, measured was a absorbance at 412 nm. After the measurement, optical path length was compensated by measuring absorbance at 997 nm and 900 nm.

[3] = CD spectrum measurement of triple-helical structure and its thermal stability; assay type: physicochemical; details: 225 nm; temperature gradient 18° C./h
Experimental: The structure of the peptide was confirmed by CD spectrum (circular dichroism spectrometer J-820, JASCO Corporation). A peptide powder was dissolved in a degassed 0.05% TFA/H2O to prepare a solution of 1 mg/ml. After heating at 80° C. for 5 min, the solution was left to stand at 4° C. overnight to cause refolding as a measurement sample. CD spectrum was measured under the conditions of: temperature 4° C., 37° C., 80° C.; cell length 0.05 cm; sensitivity standard (100 mdeg); measurement wavelength 250 to 190 nm; data collection interval 0.2 nm; scanning speed 50 nm/min; response 0.5 sec; band width 1 nm; cumulated number 4. A signal obtained (θobs) was expressed as a residue average molar ellipticity (θmrw). θmrw was calculated by the following formula.
A thermal stability of the triple-helical structure was observed by monitoring θmrw, 225 associated with a change in temperature. The measurement conditions were: 4 to 75° C. or 4 to 90° C.; cell length 0.05 cm; measurement wavelength 225 nm; data collection interval 0.5° C.; temperature gradient 18° C./h; sensitivity standard (100 mdeg); response 2 sec; band width 1 nm. It was determined that the triple-helical structure completely turned into a random coil structure in a region where the signal was linearly diminishing.

[4] = Hydrogel formation judged by holding of a stainless ball; assay type: physicochemical; set-up: key to gel formation, Time (hour) 9 / gel formation, Time (hour) 12 / gel formation, Time (hour) 15 / gel formation, Time (hour) 24 / gel formation, Time (hour) 32 / gel formation, Time (hour) 74 / gel formation, Peptide concentration 0.1% (w/v) / gel formation, Peptide concentration 0.2% (w/v) / gel formation, Peptide concentration 0.3% (w/v) / gel formation, Peptide concentration 0.5% (w/v) / gel formation, Peptide concentration 0.7% (w/v) / gel formation, Peptide concentration 1.0% (w/v): ◯: Gelated; X: Failed to gelate
Experimental: Degassed water was used to prepare a peptide solution having a concentration of 1.11% (w/v) or 1.66% (w/v), and the solution was then put into a PCR tube. After heating this solution at 80° C. for 5 min using a polymerase chain reaction (PCR) machine (TaKaRa PCR Thermal Cycler, TAKARA BIO INC.), the solution was then left to stand at 4° C. overnight. By adding DMSO and water to this solution, there was prepared a peptide solution having a concentration of 10% DMSO, 0.1 to 1.5% (w/v). The PCR tube was then filled with a mineral oil in a way such that the mineral oil covered the liquid surface, followed by allowing the solution to stand at room temperature for a given period of time to achieve a gel. Then, gel formation was determined by looking at whether a stainless ball could be held by the gel.

[5] = Hydrogel stability to reduction treatment (DTT) or water with pipetting; assay type: physicochemical; details: water added instead of reducing solution; pipetting about 90 times/min
Experimental: There, verification was made on whether gel caused a collapse by breaking the disulfide cross-linking by a reduction treatment. A reducing solution of 100 μl (100 mM DTT, 50 mM phosphate buffer solution (pH 8.4)) or water was added to the hydrogel (30 μl) prepared. […] Then, pipetting procedure was respectively performed at a frequency of about 90 times/min and a volume of 100 μl/each time, using a yellow tip (up to 200 μl).

[6] = tested on: human dermal fibroblasts (HDF); experiment: Cell adhesion assay with multifunctional polymerized gel; assay type: cell-based; details: gels with 1% by weight CCC2-GFOGER (short) triple-chain peptide unless ligand free; 37° C., three hours
Experimental: CCC2-GPOGPR (short) (SEQ ID NO. 10), CC2-GPOGPR (short) (SEQ ID NO. 23) or C2-GPOGPR (short) (SEQ ID NO. 24) was respectively dissolved in a degassed ultrapure water, followed by heating it at 80° C. for 5 min, and then stranded at 4° C. overnight to form triple helix. These were mixed at various ratios, and DMSO was then added thereto in a way such that a final concentration became 10%, followed by adding them into a 96-well plate by 50 μL each. At that time, a triple-chain peptide containing CCC2-GFOGER (short) (SEQ ID NO. 11) of a weight ratio 1% was added to all the peptide mixture liquids, and those to which the triple-chain peptide was not added were recited as “Ligand-free.” This plate was then left to stand Mill in a container filled with 10% DMSO for four days or longer to turn the peptide solution into a gel. These gels were able to dilute DMSO by immersion in a cell culture medium overnight, and then used in the following experiments employing cells. Here, type I collagen was used as a positive control.
The human dermal fibroblasts (HDF) were stripped with 0.05% trypsin/EDTA, followed by centrifuged at 800 rpm in a 15 mL tube to collect the cells. […]

[7] = tested on: human fibroblast (HDF); experiment: Adhesion of human fibroblasts to polymerized peptide with RGD motif linked via linker; assay type: cell-based; details: 37° C., about an hour
Experimental: CCC2-KGHRGF (SEQ ID NO. 18) was synthesized by a method similar to that of example 2. After forming triple helix with such CCC2-KGHRGF (SEQ ID NO: 18) at 1.11 mg/ml, DMSO was added to the concentration of 10%, and a mineral oil was then layered thereon, followed by oxidized and polymerized at room temperature for a week. Next, the polymerized peptide employing CCC2-KGHRGF (SEQ ID NO: 18) was diluted to 30 μg/ml, and a 96-well plate was then coated with such polymerized peptide overnight. Then, the solution was removed, followed by adding thereto 1 mg/ml BS (PEG)5 (by Pierce, catalog No. 21581) dissolved in a 5 mg/ml NaHCO3 aqueous solution, and then reacted at room temperature for about an hour to bind the linker. Next, there was added 10 mM ethanolamine (EA) or 100 μg/ml RGD pep (SEQ ID NO. 22) dissolved in a 5 mg/ml NaHCO3 aqueous solution, followed by allowing reaction to link CCC2-KGHRGF (SEQ ID NO: 18) to the linker at room temperature for about an hour.
5 mg/ml BSA was added to a gel linked with the above RGD motif, to perform blocking for about an hour. […] After air drying, microscopic observation was carried out, and there was evaluated a binding ability of HDF to the RGD motif linked to such polymerized peptide via a linker.

For “CC(POG)6PRG(POG)5CC (CCPPGPPGPPGPPGPPGPPGPRGPPGPPGPPGPPGPPGCC; not fully specified; hydroxyproline; MOD_RES (4)..(4) 4-Hydroxyproline; MOD_RES (7)..(7) 4-Hydroxyproline; MOD_RES (10)..(10) 4-Hydroxyproline; MOD_RES (13)..(13) 4-Hydroxyproline; MOD_RES (16)..(16) 4-Hydroxyproline; MOD_RES (19)..(19) 4-Hydroxyproline; MOD_RES (25)..(25) 4-Hydroxyproline; MOD_RES (28)..(28) 4-Hydroxyproline; MOD_RES (31)..(31) 4-Hydroxyproline; MOD_RES (34)..(34) 4-Hydroxyproline; MOD_RES (37)..(37) 4-Hydroxyprolin) [CC2]”, the “temperature at which the stainless ball completely sank” value [1] was 95 °C, the “time in which peptide turned into a gel” value [2] was 74 h and the “thermal denaturation (change in θ225 as temperature changed)” value [3] was “about 75 °C”. For the same substance, the gel-forming capability ([4]; 1% (w/v) peptide, 10% DMSO, room temperature, up to three days) was “capable of turning into gels”, the “gel formation, Time (hour) 9” value ([4]; 1% (w/v) peptide, 9 hour) was “X” and the “gel formation, Time (hour) 12” value ([4]; 1% (w/v) peptide, 12 hour) was “X”. For the same substance, the “gel formation, Time (hour) 15” value ([4]; 1% (w/v) peptide, 15 hour) was “X”, the “gel formation, Time (hour) 24” value ([4]; 1% (w/v) peptide, 24 hour) was “X” and the “gel formation, Time (hour) 32” value ([4]; 1% (w/v) peptide, 32 hour) was “◯”. The “gel formation, Time (hour) 74” value ([4]; 1% (w/v) peptide, 74 hour) was “◯”, the “gel formation, Peptide concentration 0.3% (w/v)” value ([4]; oxidizing conditions: room temperature, three days, 0.3% (w/v)) was “X” and the “gel formation, Peptide concentration 0.5% (w/v)” value ([4]; oxidizing conditions: room temperature, three days, 0.5% (w/v)) was “X”. For the same substance, the “gel formation, Peptide concentration 0.7% (w/v)” value ([4]; oxidizing conditions: room temperature, three days, 0.7% (w/v)) was “X”, the “gel formation, Peptide concentration 1.0% (w/v)” value ([4]; oxidizing conditions: room temperature, three days, 1.0% (w/v)) was “◯” and the “gel collapse on adding water” value [5] was “gel collapse was observed”.
In the case of “CCC(POG)4FOGERG(POG)4CCC [CCC2-GFOGER (short)]”, the “adhesion and aggregation of human dermal fibroblasts on gel” value [6] is reported as “each human dermal fibroblast elongated and adhered respectively”.
In the case of “GRGDS-NH2 [soluble RGD, soluble peptide having the RGD motif, as a control]”, the “adhesion of HDF” value [7] is reported as “binding ability of HDF was not exhibited”.
